Measured values published in patent US20210363269A1 (ALX ONCOLOGY, published 2021).
Positions count from the first letter of the chain named. Numbers in names are those of the source.

Columns and labels:
[1] = target: T1, human SIRP-α v1 D1 domain (human, UniProt P78324 31-149); assay: SPR, antibody immobilised on GLC chip
T1 construct: also called human v1; human α v1

[2] = target: T2, cynomolgus SIRP-α D1 domain (SEQ ID NO:11) (cynomolgus, UniProt Q5TFQ8 30-148 (human entry), limits assumed); assay: SPR, antibody immobilised on GLC chip
T2 construct: also called cyno1
T2 chain: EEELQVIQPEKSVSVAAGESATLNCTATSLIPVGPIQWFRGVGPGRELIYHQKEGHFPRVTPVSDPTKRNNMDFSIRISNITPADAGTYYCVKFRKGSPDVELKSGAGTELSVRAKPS

[3] = target: T3, human SIRP-α v2 D1 domain (human); assay: SPR, antibody immobilised on GLC chip; Table M cell, 119 Mut/mut on human v2
T3 construct: also called human v2; human α v2
How it was run: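 Antibodies purified with Protein A were amine-coupled (~1000 RU) to a ProteOn XPR36 GLC chip, and SIRP analytes were injected one-shot at 100, 33, 11, 3.7, 1.2 and 0 nM in PBS pH 7.4 with 0.01% Tween-20 at 25° C. Each run used 90 s association at 100 μL/min followed by 1200 s dissociation. KD was derived as kd/ka from a global Langmuir fit to double-referenced sensorgrams.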

[4] = target: T4, C57BL/6 mouse SIRP-α D1 domain (mouse (C57BL/6 strain), UniProt P97797 32-148); assay: SPR, antibody immobilised on GLC chip
T4 sequence: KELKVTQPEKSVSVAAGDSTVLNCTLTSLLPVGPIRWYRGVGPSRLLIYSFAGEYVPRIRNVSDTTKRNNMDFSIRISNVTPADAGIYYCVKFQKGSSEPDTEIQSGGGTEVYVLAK
Protocol: (§1) All experiments were performed at 25° C. using a SPR-based ProteOn XPR36 biosensor (BioRad, Inc, Hercules, Calif.) equipped with GLC or NLC sensor chips. […] Purification was carried out by standard Protein A affinity column chromatography and eluted antibodies were stored in PBS buffer.
(§2) For the method using GLC chip, the analytes were injected and flowed over anti-SIRPα antibodies immobilized (˜1000 RUs) on GLC chips using Proteon™ Amine Coupling Kit. For the immobilization step, GLC chip was activated with EDAC/Sulpho-NHS 1:1 (Biorad) diluted 1/100 for 300 s at 25 μL/min. Anti-SIRPα antibodies were diluted to 80 nM concentration in 10 mM sodium acetate buffer pH 4.5 and immobilized to the chip at 30 μL/min for 50 s. Chip was inactivated with ethanolamine for 300 s at 25 μL/min. The analytes (e.g., SIRP-α from different species, SIRP-β, SIRP-γ) were injected in a “one-shot” kinetic mode at nominal concentrations of 100, 33, 11, 3.7, 1.2 and 0 nM. Association times were monitored for 90 s at 100 μL/min, and dissociation times were monitored for 1200 s. The surfaces were regenerated with a 2:1 v/v blend of Pierce IgG elution buffer/4M NaCl. […]

[5] = target: T3, human SIRP-α v2 D1 domain; assay: SPR, antibody immobilised on GLC chip
Protocol: as §1, §2

[6] = target: T5, BALB/c mouse SIRP-α D1 domain (mouse (BALB/c strain)); assay: SPR, antibody immobilised on GLC chip
T5 chain: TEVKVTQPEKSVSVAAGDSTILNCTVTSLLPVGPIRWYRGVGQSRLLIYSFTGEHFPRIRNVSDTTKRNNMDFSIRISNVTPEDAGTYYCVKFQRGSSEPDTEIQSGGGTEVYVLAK
Protocol: as §1, §2

[7] = target: T1, human SIRP-α v1 D1 domain; assay: SPR, antibody immobilised on GLC chip; remark: listed apart in the source
Protocol: as §1, §2

[8] = target: T2, cynomolgus SIRP-α D1 domain (SEQ ID …); assay: SPR, antibody immobilised on GLC chip
Protocol: as §1, §2

human SIRPγ isoform 1 [9] = target: T6, human SIRPγ isoform 1 (human, UniProt Q9P1W8 29-147); assay: SPR, antibody immobilised on GLC chip
T6 construct: also called sirpg; sirp-g
Protocol: as §1, §2

[10] = target: T7, NOD mouse SIRP-α D1 domain (mouse (NOD strain)); assay: SPR, antibody immobilised on GLC chip
T7 chain: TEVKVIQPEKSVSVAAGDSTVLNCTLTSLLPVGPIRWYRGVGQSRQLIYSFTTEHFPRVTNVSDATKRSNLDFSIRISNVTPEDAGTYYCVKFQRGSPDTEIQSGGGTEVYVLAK
Protocol: as §1, §2

[11] = target: T8, human SIRP-α v2 D1 domain (human); assay: ELISA, target coated on the plate, scFv-Fc titrated from 0.008 to about 1 µg/ml, OD 405
T8 construct: biotinylated and captured on avidin in the ELISA; also called human v2
Protocol: (§3) ELISA assays were carried out to screen binding of antibody clones to SIRP analytes and SIRP-α:CD47 complex. […] Plates were blocked with PBS™ (Phosphate Buffered Saline pH 7.4, 0.05% Tween®20 polysorbate, 3% milk), 50 ul of supernatant containing the secreted scFv-Fc are added for 1 hr at room temp. Plates were washed with PBST. 50 ul of anti-hFc-HRP (1:5000 Rockland 609-4303) added for 1 hr at room temp. Plates were washed with PBST. TMB was developed for 5 min and stopped with 1N HCl. ELISA results were read using BioTek Synergy H1 Hybrid Reader. The corresponding proteins used for the assay and described here are: human SIRPα V1 (SEQ ID NO: 5); human SIRPα V2 (SEQ ID NO:6); cynomolgus SIRPα (SEQ ID NO:11); mouse NOD SIRPα (SEQ ID NO: 8); human SIRPγ (SEQ ID NO: 15); CD47 (SEQ ID NO: 16); high affinity SIRPα V1 (SEQ ID NO: 42); high affinity SIRPα V2 (SEQ ID NO:17).

human SIRPγ isoform 1 [12] = target: T9, human SIRPγ isoform 1 (human, UniProt Q9P1W8 29-147); assay: as above
T9 construct: also called human SIRP-γ v1; sirpg
Protocol: as §3

[13] = target: T10, NOD mouse SIRP-α D1 domain (mouse (NOD strain)); assay: as above
T10 construct: also called mouse NOD SIRPα
T10 chain: T7 chain
Protocol: as §3

human SIRPβ isoform 1 [14] = target: T11, human SIRPβ isoform 1 (human, UniProt O00241 30-148); assay: SPR Koff +/-
T11 construct: also called Beta; Human SIRPb
How it was run: (§4)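 Antibodies were amine-coupled (GLC chip) or captured via biotinylated Protein A (NLC chip) on a ProteOn XPR36, and SIRP analytes were injected in one-shot kinetic mode at 25° C in PBS pH 7.4 with 0.01% Tween-20. KD is kd/ka from apparent rate constants given by a global simple Langmuir fit of double-referenced data, with analyte concentrations nominal.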

mouse 129 SIRP-α = target: T12, mouse 129 SIRP-α (mouse (129 strain), UniProt P97797 32-150); assay: SPR Koff +/-
T12 construct: also called m129
T12 chain: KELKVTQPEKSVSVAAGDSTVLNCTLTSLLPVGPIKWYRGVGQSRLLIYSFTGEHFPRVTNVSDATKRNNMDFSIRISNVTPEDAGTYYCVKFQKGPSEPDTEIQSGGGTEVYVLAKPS
How it was run: as §4

cynomolgus SIRP-α = target: T13, cynomolgus SIRP-α (cynomolgus monkey, UniProt Q5TFQ8 30-148 (human entry), limits assumed); assay: SPR Koff +/-
T13 construct: also called cyno1
T13 chain: T2 chain
How it was run: as §4

human SIRPγ isoform 1 [15] = target: T14, human SIRPγ isoform 1 (human, UniProt Q9P1W8 29-147); assay: SPR Koff +/-
T14 construct: also called Gamma; Human SIRPg
How it was run: as §4

human SIRP-α v1 = target: T15, human SIRP-α v1 (human, UniProt P78324 31-149); assay: SPR
T15 construct: also called Human v1; Human V1
T15 sequence (P78324 31-149 limits assumed): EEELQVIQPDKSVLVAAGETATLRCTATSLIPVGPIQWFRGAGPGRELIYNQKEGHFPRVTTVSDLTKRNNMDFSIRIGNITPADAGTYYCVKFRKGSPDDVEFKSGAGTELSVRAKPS
How it was run: as §4

human SIRP-α v2 = target: T16, human SIRP-α v2 (human); assay: SPR KD
T16 construct: also called Human v2; Human V2
T16 sequence (chain, as listed by the source limits assumed): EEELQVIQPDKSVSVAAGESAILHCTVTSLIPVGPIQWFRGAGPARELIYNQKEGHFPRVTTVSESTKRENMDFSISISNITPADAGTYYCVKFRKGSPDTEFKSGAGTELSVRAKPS
How it was run: as §4

human SIRPβ isoform 2 = target: T17, human SIRPβ isoform 2 (human, UniProt Q5TFQ8 30-148); assay: SPR, Langmuir fit
T17 construct: also called Sirpb2; beta isoform 2
T17 sequence (Q5TFQ8 30-148 limits assumed): as the sequence (P78324 31-149 limits assumed) above, with V13I, L14S, T20S, R24H, A27V, G79S, D101H counted along it

[16] = target: T4, C57BL/6 mouse SIRP-α D1 domain; assay: SPR, Langmuir fit
[17] = target: T3, human SIRP-α v2 D1 domain; assay: SPR, Langmuir fit
[18] = target: T18, cynomolgus SIRP-α D1 domain (SEQ ID NO:12) (cynomolgus, UniProt Q5TFQ8 30-148 (human entry), limits assumed); assay: SPR, Langmuir fit
T18 construct: also called cyno2; Cyno2
T18 chain: T2 chain with E19D, A27V, T28S, V42A, H51N, Q52L, P62A

[19] = target: T5, BALB/c mouse SIRP-α D1 domain; assay: SPR, Langmuir fit
human SIRPβ isoform 1 [20] = target: T19, human SIRPβ isoform 1 (human, UniProt O00241 30-148); assay: SPR, Langmuir fit
T19 construct: also called sirpb1; Sirpb1

[21] = target: T1, human SIRP-α v1 D1 domain; assay: SPR, Langmuir fit
[22] = target: T2, cynomolgus SIRP-α D1 domain (SEQ ID …); assay: SPR, Langmuir fit
human SIRPγ isoform 1 [23] = target: T6, human SIRPγ isoform 1; assay: SPR, Langmuir fit
[24] = target: T7, NOD mouse SIRP-α D1 domain; assay: SPR, Langmuir fit

T1 sequence (P78324 31-149 limits assumed): as the sequence (P78324 31-149 limits assumed) above

B1: antibody 119 variant Mut/mut (VL mut all / VH mut) (antibody, human IgG1, V domains shown)
VH: EVQLLESGGGVVQPGGSLRLSCAASGFSFSNFAVTWVRQAPGKGLEWVSTIGSGDTYYADSVKGRFTISRDNSKNTLYLQMNSLRAEDTAVYYCAKDSTVSWSGDFFDYWGQGTLVTVSS
VL: EIVLTQSPATLSVSPGERATLSCRASQNVKNDLAWYQQKPGQAPRLLIYAARIRETGIPARFSGSGSGTEFTLTISSLQSEDFAVYYCQQYYDWPPFTFGGGTKVEIK
notes: Human IgG1 with L234A/L235A/G237A/N297A; Labels are in the order VL/VH
Kd [1]: 0.317 nM
Kd [2]: 0.195 nM
Kd [3]: 0.0875 nM

B2: antibody 136 variant MutRv_I2T/mut_V34M (antibody, human IgG1, V domains shown)
VH: EVQLVESGGGVVQPGRSLRLSCAASGFTFSSYDMNWVRQAPGKGLEWVSLISGSGEIIYYADSVKGRFTISRDNSKNTLYLQMNSLRAEDTAVYYCAKENNRYRFFDDWGQGTLVTVSS
VL: ETVLTQSPGTLSLSPGERATLSCRASQSVYTYLAWYQQKPGQAPRLLIYGASSRATGIPDRFSGSGSGTEFTLTISSLQSEDFAVYYCQQYYDRPPLTFGGGTKVEIK
notes: Human IgG1 with L234A/L235A/G237A/N297A; Labels are light chain/heavy chain
Kd [4]: 13.8 nM
Kd [5]: 1.74 nM
Kd [6]: 0.361 nM
Kd [7]: 0.551 nM
Kd [8]: 2.11 nM
Kd (human SIRPγ isoform 1 [9]): 33.5 nM
Kd [10]: 0.596 nM

B3: S138 (scFv)
scFv: EIVLTQSPGTLSVSPGERVILTCRASQSVDTYNLAWYQQKPGQAPRLLIYDLSTRATGIPDRFSGSGSGTEFTLTINSLEPEDFAVYYCHQYYDWPPYTFGGGTKVEIKGQSSRSSGGGGSSGGGGSDVQLVESGGGVVRPGESLRLSCAASGFTFSNYAMNWVRQAPGEGLEWVSGISGRGGDTYYADSVKGRFTISRDNSKNTLYLQMNSLRAEDTAIYYCAKGTWNYGSFDYWGLGTLVTVSSSLDPKSSDKTDTCPPCPAPELLGGPSVFLFPPKPKDTLMISRTPEVTCVVVDVSHEDPEVKFNWYVDGV
notes: also called clone S138
binding result [11]: no binding (tested: about 1 µg/ml)
binding result (human SIRPγ isoform 1 [12]): no binding (tested: about 1 µg/ml)
binding result [13]: no binding (tested: about 1 µg/ml)

B4: antibody 123 (antibody, V domains shown)
VH: VQLVESGGGLVQPGGSLRLSCTASGFTFRNYGMSWVRQAPGEGLEWVSASSGSGSTYYTDSVKGRFTISRDNSKNTLYLQMNSLRAEDTAIYYCAKVTWNNFFDYWGLGTLVTVSS
VL: EIVLTQSPGTLSVSPGERVTLTCRASQGIAGKIAWYQQKPGQAPRLLIYDASSRATGIPGRFSGSGSGTEFTLTITSLQSEDFAVYYCQQHYDWSPLTFGGGTKVEIK
notes: also called S123
binding result (human SIRPβ isoform 1 [14]): no binding
binding result (mouse 129 SIRP-α): no binding
binding result (cynomolgus SIRP-α): binds
binding result (human SIRPγ isoform 1 [15]): binds
Kd (human SIRP-α v1): 0.605 nM
binding result (human SIRP-α v2): no binding

B5: AB3 (as in Table J1) (antibody, V domains shown)
VH: AVTLDESGGGLQTPGGALSLVCKASGFIFSDYGMNWVRQAPGKGLEFVAQITSGSRTYYGAAVKGRATISRDNRQSTVKLQLNNLRAEDTGIYFCARDFGSGVGSIDAWGNGTEVIVSS
VL: ALTQPASVSANLGGTVKITCSGSRGRYGWYQQRSPGSAPVTVIYRDNQRPSNIPSRFSSSTSGSTSTLTITGVQADDESVYFCGSYDGSIDIFGAGTTLTVL
notes: also called antibody 3
Kd (human SIRPβ isoform 2): 0.0678 nM
Kd [16]: 3.65 nM
Kd [17]: 0.0767 nM
Kd [18]: 2.85 nM
Kd [19]: 1.16 nM
Kd (human SIRPβ isoform 1 [20]): 1.63 nM
Kd [21]: 0.162 nM
Kd [22]: 2.29 nM
Kd (human SIRPγ isoform 1 [23]): 83.6 nM
Kd [24]: 1.63 nM
